Assay results taken from US20240109974A1 (SHANDONG SIMCERE BIOPHARMACEUTICAL, published 2024).

T1: Cynomolgus TNFR2-His (Sino 90102-C08H) (cynomolgus monkey, UniProt A0A2K5VET2 132-366)
T1 construct: Bought protein; also called cynomolgus monkey TNFR2; recombinant cynomolgus monkey TNFR2 protein; not shown: His tag
T1 sequence: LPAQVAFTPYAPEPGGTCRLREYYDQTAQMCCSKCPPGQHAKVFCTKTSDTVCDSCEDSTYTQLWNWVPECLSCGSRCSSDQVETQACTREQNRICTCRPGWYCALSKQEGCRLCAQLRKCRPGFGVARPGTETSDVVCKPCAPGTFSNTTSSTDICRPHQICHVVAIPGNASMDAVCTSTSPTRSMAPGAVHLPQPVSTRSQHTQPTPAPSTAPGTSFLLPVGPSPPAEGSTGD

T2: human TNFR2 on the surface of CHO-TNFR2 cells (human, UniProt P20333 23-461)
T2 construct: whole, on cells
T2 sequence (looked up): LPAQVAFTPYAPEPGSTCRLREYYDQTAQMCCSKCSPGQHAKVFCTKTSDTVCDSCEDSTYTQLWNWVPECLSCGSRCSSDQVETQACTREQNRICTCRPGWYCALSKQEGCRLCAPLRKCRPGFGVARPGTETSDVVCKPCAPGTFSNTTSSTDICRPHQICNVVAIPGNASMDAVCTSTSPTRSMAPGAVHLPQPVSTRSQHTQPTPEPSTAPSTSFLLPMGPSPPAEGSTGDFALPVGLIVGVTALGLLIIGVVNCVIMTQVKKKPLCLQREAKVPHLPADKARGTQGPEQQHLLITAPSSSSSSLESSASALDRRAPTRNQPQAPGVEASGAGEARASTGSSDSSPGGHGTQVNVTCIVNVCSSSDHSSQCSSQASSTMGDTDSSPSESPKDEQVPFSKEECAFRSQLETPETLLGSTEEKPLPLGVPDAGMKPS

B1: 224-Hu1 (antibody, V domains shown)
VH: QVQLVQSGAEVKKPGASVKVSCKASGFNNKDIYMHWVRQAPGQGLEWIGRIDPATGNTKHDPKFQDRVTMTSDTSTNTVYMELSSLRSEDTAVYYCARSPYGDFGAMDYWGQGTLVTVSS
VL: DIQMTQSPSSLSASVGDRVTITCTASSSVSSNYLHWYQQKPGKAPKLWIYSTSNLPSGVPSRFSGSGSGTDFTLTISSLQPEDFATYYCHQYHRSPWTFGQGTKVEIK
notes: Humanized form of #224; also called VH8 + VL6
B2: 224-Hu7 (antibody, V domains shown)
VH: QVQLVQSGSELKKPGASVKVSCKASGFNNKDIYMHWVRQAPGQGLEWMGRIDPATGNTKHDPKFQDKAVLSSDTSVSTAYLQISSLKAEDTAVYYCARSPYGDFGAMDYWGQGTLVTVSS
VL: DIQMTQSPSSLSASVGDRVTITCTASSSVSSNYLHWYQQKPGKAPKLLIYSTSNLPSGVPSRFSGSGSGTDFTLTISSLQPEDFATYYCHQYHRSPWTFGQGTKVEIK
notes: Humanized form of #224; also called VH9 + VL10
B3: 224-Hu6 (antibody, V domains shown)
VH: QVQLVQSGAEVKKPGASVKVSCKASGFNNKDIYMHWVRQAPGQGLEWIGRIDPATGNTKHDPKFQDRVTMTSDTSTNTVYMELSSLRSEDTAVYYCARSPYGDFGAMDYWGQGTLVTVSS
VL: DIQMTQSPSSLSASVGDRVTITCTASSSVSSNYLHWYQQKPGSSPKLWIYSTSNLPSGVPSRFSGSGSGTDFTLTISSLQPEDFATYYCHQYHRSPWTFGQGTKVEIK
notes: Humanized form of #224; also called VH8 + VL7
B4: 224-Hu4 (antibody, V domains shown)
VH: QVQLVQSGSELKKPGASVKVSCKASGFNNKDIYMHWVRQAPGQGLEWMGRIDPATGNTKHDPKFQDKAVLSSDTSVSTAYLQISSLKAEDTAVYYCARSPYGDFGAMDYWGQGTLVTVSS
VL: DIQMTQSPSSLSASVGDRVTITCTASSSVSSNYLHWYQQKPGKAPKLWIYSTSNLPSGVPSRFSGSGSGTDFTLTISSLQPEDFATYYCHQYHRSPWTFGQGTKVEIK
notes: Humanized form of #224; also called VH9 + VL6
B5: 224-Hu5 (antibody, V domains shown)
VH: QVQLVQSGSELKKPGASVKVSCKASGFNNKDIYMHWVRQAPGQGLEWMGRIDPATGNTKHDPKFQDKAVLSSDTSVSTAYLQISSLKAEDTAVYYCARSPYGDFGAMDYWGQGTLVTVSS
VL: DIQMTQSPSSLSASVGDRVTITCTASSSVSSNYLHWYQQKPGKAPKLLIYSTSNLPSGVPSRFSGSGSGTDYSLTISSLQPEDFATYYCHQYHRSPWTFGQGTKVEIK
notes: Humanized form of #224; also called VH9 + VL9
B6: 224-Hu3 (antibody, V domains shown)
VH: QVQLVQSGSELKKPGASVKVSCKASGFNNKDIYMHWVRQAPGQGLEWMGRIDPATGNTKHDPKFQDKAVLSSDTSVSTAYLQISSLKAEDTAVYYCARSPYGDFGAMDYWGQGTLVTVSS
VL: DIQMTQSPSSLSASVGDRVTITCTASSSVSSNYLHWYQQKPGKAPKLLIYSTSNLPSGVPSRFSGSGSGTDFTLTISSLQAEDAATYYCHQYHRSPWTFGQGTKVEIK
notes: Humanized form of #224; also called VH9 + VL8
B7: 224-Hu2 (antibody, V domains shown)
VH: QVQLVQSGSELKKPGASVKVSCKASGFNNKDIYMHWVRQAPGQGLEWMGRIDPATGNTKHDPKFQDKAVLSSDTSVSTAYLQISSLKAEDTAVYYCARSPYGDFGAMDYWGQGTLVTVSS
VL: DIQMTQSPSSLSASVGDRVTITCTASSSVSSNYLHWYQQKPGSSPKLWIYSTSNLPSGVPSRFSGSGSGTDFTLTISSLQPEDFATYYCHQYHRSPWTFGQGTKVEIK
notes: Humanized form of #224; also called VH9 + VL7

How the values were obtained:
[1] = biological target: T1, Cynomolgus TNFR2-His (Sino 90102-C08H); experiment: ELISA, cynomolgus TNFR2-His coated
Description: The test humanized antibody against TNFR2 (as described in Example 1, the antibody was comprised of variable regions linked to IgG-Fc; the WT chimeric antibody also adopted the IgG-Fc structure) was subjected to 3.33-fold gradient dilution, loaded with 100 μl/well, and incubated with shaking at room temperature for 1.5 hours. The plate was washed, and then a working solution of murine anti-human IgG Fc-HRP (diluted at 1:10000) was added, loaded with 100 μl/well, and incubated with shaking at room temperature for 1.0 hour. The plate was washed again, and then the substrate TMB of HRP was added to develop colour. A stop solution was added to stop the reaction, and then a microplate reader (MD 13) was used to read the absorbance value. The binding curve of an antibody was drawn with antibody concentration as the abscissa and corresponding OD value as the ordinate, and fitted with four parameters (GraphPad Prism9) to calculate the EC50 value. The smaller the EC50 value, the stronger the binding ability of an antibody to human/cynomolgus monkey TNFR2. The binding effect of a humanized antibody was normalized to its corresponding human-murine chimeric antibody WT (see SEQ ID NOs: 38-43 for the sequence). The higher the percentage value, the better the binding effect of the humanized antibody. The results of binding of an anti-TNFR2 antibody to a human TNFR2 protein are shown in FIG. 1 and Table 4, and the results of binding of an anti-TNFR2 antibody to cynomolgus monkey TNFR2 are shown in FIG. 2 and Table 4.

[2] = biological target: T2, human TNFR2 on the surface of CHO-TNFR2 …; experiment: flow cytometry on CHO-TNFR2 cells; area under the MFI fold curve
Description: The transfected full-length plasmid of human TNFR2 was purchased from Sino Biological (Cat #HG10417-UT, NCBI Ref Seq: NM_001066.2). The experiment was conducted at a cell density within 80%. The cell medium was discarded; the cells were rinsed with PBS, and digested with 1 ml trypsin for 2 minutes; the digestion was stopped with a Ham's F12 complete medium containing 10% FBS, and then a cell suspension was made. The cell suspension was counted, and then an appropriate amount of cell suspension was centrifuged at 350×g; the supernatant was discarded; a corresponding volume of blocking solution (10% FBS+PBS) at a density of 1×10⁷ cells/ml was added to resuspend the cells, and the mixture was incubated at 4° C. for 30 minutes. After the incubation, the mixture was centrifuged at 350×g to remove the supernatant, and the cells were resuspended in a staining buffer (2% FBS+PBS) to a density of 2×10⁶ cells/ml, and spread onto a 96-well plate, with 50 μl of cell suspension added to each well for later use. The antibody was diluted with PBS for 10-fold gradient dilution from the highest concentration of 20 μg/m (twice the concentration); the diluted antibody was added to the well containing 50 μl of cell suspension, and placed on a microplate shaker for shaking at 500 rpm for 1 minute, so that the antibody was fully mixed with the cells; the mixture was incubated at 4° C. for 1 h. After the incubation, the cells were washed twice with the staining buffer, with 100 μl per well, and centrifuged at 350-g for 5 minutes, and the supernatant was discarded. The PE goat anti-Human IgG Fc antibody (ebioscience, Cat #12-4998-82) was diluted 250-fold with the staining buffer, with a volume of 100 μl per well added to the washed cell wells; the mixture was mixed evenly, and stained at 4° C. for 30 minutes. After the staining, similarly, the cells were washed twice with the staining buffer; finally, the cells were resuspended in 200 μl of staining buffer; signals were detected by a flow cytometer (Thermo Attune NxT). The stronger the signal, the stronger the binding ability of an antibody to TNFR2. The binding curve of an antibody was drawn with antibody concentration as the abscissa and corresponding mean fluorescence intensity (MFI) fold as the ordinate, and fitted with four parameters (GraphPad Prism9) to calculate the EC50 value.

Binder | EC50 [1] | AUC [2]
B1 | 9.98 ng/mL | 642
B2 | 8.39 ng/mL | 608
B3 | 9.97 ng/mL | 603
B4 | 9.56 ng/mL | 621
B5 | 9.69 ng/mL | 593
B6 | 9.69 ng/mL | 675
B7 | 9.62 ng/mL | 672
